The labels stand for the following.
B1: Phospholipid-transporting ATPase ABCA3 (Homo sapiens), Q99758 (parent)
chain: MAVLRQLALLLWKNYTLQKRKVLVTVLELFLPLLFSGILIWLRLKIQSENVPNATIYPGQSIQELPLFFTFPPPGDTWELAYIPSHSDAAKTVTETVRRALVINMRVRGFPSEKDFEDYIRYDNCSSSVLAAVVFEHPFNHSKEPLPLAVKYHLRFSYTRRNYMWTQTGSFFLKETEGWHTTSLFPLFPNPGPREPTSPDGGEPGYIREGFLAVQHAVDRAIMEYHADAATRQLFQRLTVTIKRFPYPPFIADPFLVAIQYQLPLLLLLSFTYTALTIARAVVQEKERRLKEYMRMMGLSSWLHWSAWFLLFFLFLLIAASFMTLLFCVKVKPNVAVLSRSDPSLVLAFLLCFAISTISFSFMVSTFFSKANMAAAFGGFLYFFTYIPYFFVAPRYNWMTLSQKLCSCLLSNVAMAMGAQLIGKFEAKGMGIQWRDLLSPVNVDDDFCFGQVLGMLLLDSVLYGLVTWYMEAVFPGQFGVPQPWYFFIMPSYWCGKPRAVAGKEEEDSDPEKALRNEYFEAEPEDLVAGIKIKHLSKVFRVGNKDRAAVRDLNLNLYEGQITVLLGHNGAGKTTTLSMLTGLFPPTSGRAYISGYEISQDMVQIRKSLGLCPQHDILFDNLTVAEHLYFYAQLKGLSRQKCPEEVKQMLHIIGLEDKWNSRSRFLSGGMRRKLSIGIALIAGSKVLILDEPTSGMDAISRRAIWDLLQRQKSDRTIVLTTHFMDEADLLGDRIAIMAKGELQCCGSSLFLKQKYGAGYHMTLVKEPHCNPEDISQLVHHHVPNATLESSAGAELSFILPRESTHRFEGLFAKLEKKQKELGIASFGASITTMEEVFLRVGKLVDSSMDIQAIQLPALQYQHERRASDWAVDSNLCGAMDPSDGIGALIEEERTAVKLNTGLALHCQQFWAMFLKKAAYSWREWKMVAAQVLVPLTCVTLALLAINYSSELFDDPMLRLTLGEYGRTVVPFSVPGTSQLGQQLSEHLKDALQAEGQEPREVLGDLEEFLIFRASVEGGGFNERCLVAASFRDVGERTVVNALFNNQAYHSPATALAVVDNLLFKLLCGPHASIVVSNFPQPRSALQAAKDQFNEGRKGFDIALNLLFAMAFLASTFSILAVSERAVQAKHVQFVSGVHVASFWLSALLWDLISFLIPSLLLLVVFKAFDVRAFTRDGHMADTLLLLLLYGWAIIPLMYLMNFFFLGAATAYTRLTIFNILSGIATFLMVTIMRIPAVKLEELSKTLDHVFLVLPNHCLGMAVSSFYENYETRRYCTSSEVAAHYCKKYNIQYQENFYAWSAPGVGRFVASMAASGCAYLILLFLIETNLLQRLRGILCALRRRRTLTELYTRMPVLPEDQDVADERTRILAPSPDSLLHTPLIIKELSKVYEQRVPLLAVDRLSLAVQKGECFGLLGFNGAGKTTTFKMLTGEESLTSGDAFVGGHRISSDVGKVRQRIGYCPQFDALLDHMTGREMLVMYARLRGIPERHIGACVENTLRGLLLEPHANKLVRTYSGGNKRKLSTGIALIGEPAVIFLDEPSTGMDPVARRLLWDTVARARESGKAIIITSHSMEECEALCTRLAIMVQGQFKCLGSPQHLKSKFGSGYSLRAKVQSEGQQEALEEFKAFVDLTFPGSVLEDEHQGMVHYHLPGRDLSWAKVFGILEKAKEKYGVDDYSVSQISLEQVFLSFAHLQPPTAEEGR
partner: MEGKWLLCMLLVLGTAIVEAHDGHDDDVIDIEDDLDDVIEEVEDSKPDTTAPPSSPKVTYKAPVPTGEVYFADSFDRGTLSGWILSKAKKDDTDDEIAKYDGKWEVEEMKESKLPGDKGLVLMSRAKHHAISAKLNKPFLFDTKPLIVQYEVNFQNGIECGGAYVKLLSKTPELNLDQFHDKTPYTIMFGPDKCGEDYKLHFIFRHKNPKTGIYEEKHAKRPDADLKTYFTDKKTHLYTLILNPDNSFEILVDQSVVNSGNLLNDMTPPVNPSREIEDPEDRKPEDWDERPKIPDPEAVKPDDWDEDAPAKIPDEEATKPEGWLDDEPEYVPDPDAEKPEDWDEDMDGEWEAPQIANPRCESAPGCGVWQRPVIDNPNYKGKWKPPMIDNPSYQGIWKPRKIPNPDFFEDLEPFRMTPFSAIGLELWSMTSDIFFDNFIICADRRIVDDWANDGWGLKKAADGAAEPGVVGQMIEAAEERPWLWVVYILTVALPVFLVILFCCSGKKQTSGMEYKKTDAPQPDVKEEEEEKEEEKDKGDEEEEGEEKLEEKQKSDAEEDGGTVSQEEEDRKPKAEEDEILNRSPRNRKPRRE
B2: Phospholipid-transporting ATPase ABCA3 (Homo sapiens), Q99758 (parent)
chain: B1 chain
partner: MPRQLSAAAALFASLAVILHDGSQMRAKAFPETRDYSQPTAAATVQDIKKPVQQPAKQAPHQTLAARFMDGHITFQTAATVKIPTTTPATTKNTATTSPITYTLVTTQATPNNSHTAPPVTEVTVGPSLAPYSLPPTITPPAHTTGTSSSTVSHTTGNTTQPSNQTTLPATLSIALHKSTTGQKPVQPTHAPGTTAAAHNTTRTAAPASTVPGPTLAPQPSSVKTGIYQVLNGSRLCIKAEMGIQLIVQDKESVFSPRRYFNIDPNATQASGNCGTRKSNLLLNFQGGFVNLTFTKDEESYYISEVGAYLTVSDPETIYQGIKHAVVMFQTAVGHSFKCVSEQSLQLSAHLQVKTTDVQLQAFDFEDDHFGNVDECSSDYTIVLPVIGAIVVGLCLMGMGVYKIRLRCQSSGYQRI

One test covers variants of B1. The note with it: with calx_human CANX.
Regarding Q215K, the “effect of a mutation on the interaction” value is recorded as “increasing interaction”.

Variants of B2 are the subject of another test. As to conditions: with lamp3_human LAMP3, Q9UQV4.
Consider Q215K, for which the “effect of a mutation on the interaction” value is “disrupting interaction”.

For the origin of these results see IntAct's records for PubMed 20863830.
